The record followed here is patent US20080014143A1 (SANFORD BURNHAM MEDICAL RESEARCH INSTITUTE, published 2008).

For assay [1], the target named is purified gC1qR/p32 protein (coated onto microtiter wells) (human) (UniProt Q07021). Briefly: phage binding to purified p32 coated on microtiter wells, plaque assay.
The target is the same in assay [2]. The assay is described as follows: inhibition of phage binding to purified p32 on wells; competitor LyP-1 phage; 20 µg/ml mAb.
In assay [3] the target is gC1qR/p32 at the cell surface (C8161 cells transfected with p32 cDNA; MDA-MB-435 and MDA-MB-435 S35 cells; Raji cells) (human) (UniProt Q07021). The assay is described as follows: inhibition of LyP-1 phage binding to Raji cells; competitor LyP-1 phage; 40 µg/ml mAb.
Assay [4] concerns the target T1, endogenous gC1qR/p32 of tumor cells and tissues (extracts of MDA-MB-435 cells, BT549 cells, MDA-MB-435 tumor … (human, UniProt Q07021 74-282)).
T1 construct: mature; 33 kD band in cell extracts; in tumor xenograft extracts an additional 75 kD band was also identified as gC1qR/p32; also called gC1q/p32 receptor; p32/p33/gC1qR/HABP1
T1 sequence (looked up): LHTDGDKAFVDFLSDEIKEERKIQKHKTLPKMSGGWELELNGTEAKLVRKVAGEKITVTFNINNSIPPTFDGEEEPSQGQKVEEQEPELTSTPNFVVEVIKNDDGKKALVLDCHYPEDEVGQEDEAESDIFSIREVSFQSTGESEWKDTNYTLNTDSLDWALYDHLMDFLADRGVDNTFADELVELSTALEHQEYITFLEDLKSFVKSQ
Briefly: pull-down from MDA-MB-435 cell extract with biotinylated peptide on streptavidin beads, anti-p32 immunoblot. The source says:
A tumor homing peptide, CREKA (SEQ ID NO: 3), and a peptide CRV which resembles Lyp-1 in its amino acid composition and cyclic structure (SEQ ID NO: 4, […]), were used as negative controls. (a) Left panel: silver staining of Lyp-1 bound proteins. The arrow indicates a specific 33 kD band, which was identified as gC1q/p32R by mass spectrometry. Right panel: immunoblot of total cell extract (Tot lysate) and proteins bound to Lyp-1 and control peptides using a monoclonal antibody against gC1q/p32 receptor. The antibody recognizes a band of 33 kD in the total proteins lysate and in the Lyp-1 pull down. Anti gC1q/p32 receptor reactive bands are not detected in the pull downs from both control peptides. […] The monoclonal antibody against gC1qR/p32 recognized a 75 kD and a 33 kD band only in the Lyp-1 peptide pull down (b-right panel).
A tumor homing peptide, CREKA (SEQ ID NO:3), and a peptide CRV which resembles Lyp-1 in its amino acid composition and cyclic structure (SEQ ID NO:4, […]), were used as negative controls. The Lyp-1 bound proteins were visualized using silver staining and immunobloting. […] The arrow indicates a specific 33 kD band, which was identified as gC1qR/p32 by mass spectrometry. […] The antibody recognizes a band of 33 kD in the total proteins lysate and in the Lyp-1 pull down. Anti gC1qR/p32 reactive bands are not detected in the pull downs from both control peptides.
In general terms: Immunoblotting shows a protein as a band on a membrane.

Assay [5] addresses T2, gC1qR/p32 at the cell surface (C8161 cells transfected with p32 cDNA); MDA-MB-435 and MDA-MB-435 S35 cells; … (human, UniProt Q07021 74-282).
T2 construct: whole, on cells; also called cell surface p32; cell surface gC1qR/p32
T2 sequence (looked up): T1 sequence (looked up)
Briefly: FACS of FITC-peptide on live MDA-MB-435 cells transfected with p32 siRNA or control siRNA. As for the experimental part:
48 hours after transfection, inhibition of p32 expression was checked by immunoblot analysis and immunostaining (upper panels). β-actin was used as a control. (Lower panels) cells transfected with p32 siRNA or control siRNA were incubated for 1 h at 4 °C in the presence of 10 μM FITC conjugated LyP-1 peptide or a control peptide, […] (ARAL, SEQ ID NO: 5), which has same overall charge as LyP-1. Cells incubated in the absence of peptide served as negative control. Down-regulation of p32 expression reduced LyP-1 binding to the cells (left panel), but control peptide fluorescence was unaffected (right panel). A representative experiment out of three is shown. C. […] Insertless phage was used to determine background phage binding. The results are representative of three independent experiments and are expressed as percentage of phage binding (±SD), with binding of LyP-1 phage in the presence of mIgG1 set as 100%.
MDA-MB-435 cells were transiently transfected with gC1qR/p32-specific or control siRNAs. […] The amount of fluorescence in living cells was analyzed by FACS. Cells incubated in the absence of peptide served as FITC negative control.

Bridge positions count the residues as written; N and C are the ends. Ends that are not written are not given here.

As for “LyP-1 phage (phage displaying the LyP-1 peptide)”, in assay [1], the fold binding over insertless control phage turned out to be 60 fold.
In assay [2], “mouse monoclonal anti-gC1qR/p32 antibody 60.11” displayed a percent reduction of LyP-1 phage binding of 90%. This molecule also had a percent reduction of LyP-1 binding in assay [3] of 50%.

B1: biotinylated CRV peptide (CRVRTRSGC) (peptide)
peptide: CRVRTRSGC
modifications: disulfide 1-9 (inferred); also: biotinylated, site not given here
notes: Negative control in the pull-down; also called control peptide
Regarding B1, in assay [4], the binding result was “no binding”.

B2: biotinylated CREKA peptide (peptide)
peptide: CREKA
modifications: also: biotinylated, site not given here
notes: as for B1
Turning to B2, in assay [4], the binding result was “no binding”.
Turning to ARALPSQRSR (also: FITC conjugated, site not given here, Same overall charge as LyP-1) [FITC conjugated control peptide ARALPSQRSR], the binding result in assay [5] is given as “no binding (tested: 10 µM)”.
